Test results taken from patent US20030198957.

Substance: human NOV8 (EDSP, Endothelial Dual Specificity Phosphatase domain-containing protein)
- in vitro phosphorylation (dephosphorylation) assay (ERK): can dephosphorylate ERK and JNK
- in vitro phosphorylation (dephosphorylation) assay (JNK): can dephosphorylate ERK and JNK
- in vitro phosphorylation (dephosphorylation) assay (P38 MAP kinase): has little activity on P38 MAP kinase
